Experimental findings from patent publication US10640547B2, “Immunotherapy against melanoma and other cancers” (IMMATICS BIOTECHNOLOGIES GMBH, priority 2016, dated 2020) are described below.

For this assay, the target named is HLA-A*02:01 (Homo sapiens, UniProt P04439, D140Y/D185E/D98H/E176V/E277Q/G131W/G231S/I119V/I121R/I166T/I218V/L300P/L318F/N151K/N90K/P208A/P217A/Q86G/Q94H/R138H/R169H/T345S). Description: MHC binding assay (UV-ligand exchange, β2m ELISA). As to conditions: MHC class I binding score; binding to HLA-A*02:01 ranged by peptide exchange yield (UV-ligand exchange, β2m ELISA). The text has this: Candidate peptides for T cell based therapies according to the present invention were further tested for their MHC binding capacity (affinity). The individual peptide-MHC complexes were produced by UV-ligand exchange, where a UV-sensitive peptide is cleaved upon UV-irradiation, and exchanged with the peptide of interest as analyzed. Only peptide candidates that can effectively bind and stabilize the peptide-receptive MHC molecules prevent dissociation of the MHC complexes. To determine the yield of the exchange reaction, an ELISA was performed based on the detection of the light chain (β2m) of stabilized MHC complexes. The assay was performed as generally described in Rodenko et al. (Rodenko et al., 2006).
96 well MAXISorp plates (NUNC) were coated over night with 2 ug/ml streptavidin in PBS at room temperature, washed 4× and blocked for 1 h at 37° C. in 2% BSA containing blocking buffer. Refolded HLA-A*02:01/MLA-001 monomers served as standards, covering the range of 15-500 ng/ml. Peptide-MHC monomers of the UV-exchange reaction were diluted 100 fold in blocking buffer. Samples were incubated for 1 h at 37° C., washed four times, incubated with 2 ug/ml HRP conjugated anti-β2m for 1 h at 37° C., washed again and detected with TMB solution that is stopped with […]. Absorption was measured at 450 nm. Candidate peptides that show a high exchange yield (preferably higher than 50%, most preferred higher than 75%) are generally preferred for a generation and production of antibodies or fragments thereof, and/or T cell receptors or fragments thereof, as they show sufficient avidity to the MHC molecules and prevent dissociation of the MHC complexes.
(In general: An ELISA detects its analyte on a solid surface through an enzyme-linked reagent.)

With “86 (HTLPHEIVVNL; listed as Homo sapiens) [compound 86]”, the Peptide exchange result is “+++ (>50 = +++)”.
Under “87 (IIDPPLHGQLL; listed as Homo sapiens) [compound 87]” stands “++ (>20% = ++)”; under “88 (ILDGIIREL; listed as Homo sapiens) [compound 88]”, “+++ (>50 = +++)”.
Take “89 (ILDNSPAFL; listed as Homo sapiens) [compound 89]”: the Peptide exchange entry was “+++ (>50 = +++)”.
As for “90 (ILDYIHNGL; listed as Homo sapiens) [compound 90]”, the entry is “+++ (>50 = +++)”.
On to “91 (ILLDRLFSV; listed as Homo sapiens) [compound 91]”, for which the Peptide exchange entry is listed as “++++ (>75% = ++++)”.
On to “92 (KLPGFPTQDDEV; listed as Homo sapiens) [compound 92]”, for which the Peptide exchange result is given as “++ (>20% = ++)”.
As to “93 (LLAKAVQNV; listed as Homo sapiens) [compound 93]”, the Peptide exchange entry is listed as “+++ (>50 = +++)”.
As for “94 (LLDAFSIKL; listed as Homo sapiens) [compound 94]”, the entry is “+++ (>50 = +++)”; as for “95 (LLDALQHEL; listed as Homo sapiens) [compound 95]”, “+++ (>50 = +++)”.
As for “96 (LLDMSLVKL; listed as Homo sapiens) [compound 96]”, the entry is “+++ (>50 = +++)”; as for “97 (NLDATVTAL; listed as Homo sapiens) [compound 97]”, “+++ (>50 = +++)”.
As for “98 (NLPNTNSILGV; listed as Homo sapiens) [compound 98]”, the entry is “+++ (>50 = +++)”; as for “99 (NLPSELPQL; listed as Homo sapiens) [compound 99]”, “+++ (>50 = +++)”.
Turning to “100 (NLREILQNV; listed as Homo sapiens) [compound 100]”, the Peptide exchange result is “+++ (>50 = +++)”.
As to “101 (NVDENVAEL; listed as Homo sapiens) [compound 101]”, the Peptide exchange entry is on record as “++ (>20% = ++)”.
As for “102 (RLPDQFSKL; listed as Homo sapiens) [compound 102]”, the entry is “+++ (>50 = +++)”; as for “103 (SLDAVMPHL; listed as Homo sapiens) [compound 103]”, “+++ (>50 = +++)”; as for “104 (SLDQIIQHL; listed as Homo sapiens) [compound 104]”, “+++ (>50 = +++)”.
Under “105 (SLKQTVVTL; listed as Homo sapiens) [compound 105]” stands “+++ (>50 = +++)”; under “106 (TLSEICEFI; listed as Homo sapiens) [compound 106]”, “++++ (>75% = ++++)”.
Turning to “107 (TLVAFLQQV; listed as Homo sapiens) [compound 107]”, the Peptide exchange result is recorded as “++++ (>75% = ++++)”.
As for “108 (TVIRPLPGL; listed as Homo sapiens) [compound 108]”, the entry is “++ (>20% = ++)”; as for “109 (VIDDLIQKL; listed as Homo sapiens) [compound 109]”, “++ (>20% = ++)”; as for “110 (VLDTLTKVL; listed as Homo sapiens) [compound 110]”, “+++ (>50 = +++)”.
In the case of “111 (VLDVSFNRL; listed as Homo sapiens) [compound 111]”, the Peptide exchange result is “+++ (>50 = +++)”.
As for “112 (VLPAVLTRL; listed as Homo sapiens) [compound 112]”, the entry is “+++ (>50 = +++)”.
Under “113 (VLYSLVSKI; listed as Homo sapiens) [compound 113]” stands “+++ (>50 = +++)”; under “114 (VVDDIVSKL; listed as Homo sapiens) [compound 114]”, “++ (>20% = ++)”.
Take “115 (YIDDVFMGL; listed as Homo sapiens) [compound 115]”: the Peptide exchange entry is “+++ (>50 = +++)”.
As to “117 (KQQASQVLV; listed as Homo sapiens) [compound 117]”, the Peptide exchange entry was “+++ (>50 = +++)”.
Take “118 (TMIEICEKL; listed as Homo sapiens) [compound 118]”: the Peptide exchange entry is “++++ (>75% = ++++)”.
Under “119 (SLGLGFISRV; listed as Homo sapiens) [compound 119]” stands “+++ (>50 = +++)”.
Under “120 (QLMEGKVVL; listed as Homo sapiens) [compound 120]” stands “++++ (>75% = ++++)”; under “122 (YVDDFGVSV; listed as Homo sapiens) [compound 122]”, “+++ (>50 = +++)”; under “123 (LLGEGIPSA; listed as Homo sapiens) [compound 123]”, “++++ (>75% = ++++)”.
Under “124 (FLPQKIIYL; listed as Homo sapiens) [compound 124]” stands “++++ (>75% = ++++)”; under “125 (YLFAFLNHL; listed as Homo sapiens) [compound 125]”, “++++ (>75% = ++++)”.
As for “126 (SLIDFVVTC; listed as Homo sapiens) [compound 126]”, the Peptide exchange entry is “+++ (>50 = +++)”.
For the substance “127 (TLISDIEAVKA; listed as Homo sapiens) [compound 127]”, the Peptide exchange result is recorded as “+++ (>50 = +++)”.
As for “129 (VLPDDLSGV; listed as Homo sapiens) [compound 129]”, the entry is “+++ (>50 = +++)”; as for “130 (GLVDVLYTA; listed as Homo sapiens) [compound 130]”, “+++ (>50 = +++)”.
Under “131 (FVDPNGKISL; listed as Homo sapiens) [compound 131]” stands “+++ (>50 = +++)”.
As for “132 (FLDASGAKL; listed as Homo sapiens) [compound 132]”, the entry is “++++ (>75% = ++++)”; as for “134 (LLDEVLHTM; listed as Homo sapiens) [compound 134]”, “++++ (>75% = ++++)”; as for “135 (FLDDQETRL; listed as Homo sapiens) [compound 135]”, “+++ (>50 = +++)”.
As for “136 (FAYDGKDYIAL; listed as Homo sapiens) [compound 136]”, the Peptide exchange result was “+++ (>50 = +++)”.
For the substance “137 (ILPSNLLTV; listed as Homo sapiens) [compound 137]”, the Peptide exchange entry is reported as “+++ (>50 = +++)”.
Under “138 (YLDKTFYNL; listed as Homo sapiens) [compound 138]” stands “+++ (>50 = +++)”.
Under “139 (AVDATVNQV; listed as Homo sapiens) [compound 139]” stands “+++ (>50 = +++)”; under “140 (RLEAYLARV; listed as Homo sapiens) [compound 140]”, “+++ (>50 = +++)”; under “141 (YVIDPIKGL; listed as Homo sapiens) [compound 141]”, “+++ (>50 = +++)”.
Under “142 (FVDGSAIQV; listed as Homo sapiens) [compound 142]” stands “+++ (>50 = +++)”; under “143 (ILDDSALYL; listed as Homo sapiens) [compound 143]”, “++++ (>75% = ++++)”.
On to “144 (SVDEVEISV; listed as Homo sapiens) [compound 144]”, for which the Peptide exchange result was “+++ (>50 = +++)”.
Under “145 (TLPNIYVTL; listed as Homo sapiens) [compound 145]” stands “+++ (>50 = +++)”; under “146 (GVGPVPARA; listed as Homo sapiens) [compound 146]”, “+++ (>50 = +++)”; under “147 (ILDDQTNKL; listed as Homo sapiens) [compound 147]”, “+++ (>50 = +++)”.
Take “148 (TLKDIVQTV; listed as Homo sapiens) [compound 148]”: the Peptide exchange result is given as “+++ (>50 = +++)”.
As for “149 (YLDTFALKL; listed as Homo sapiens) [compound 149]”, the entry is “++++ (>75% = ++++)”; as for “150 (KLFPSPLQTL; listed as Homo sapiens) [compound 150]”, “++++ (>75% = ++++)”.
Under “151 (FLGEPASYLYL; listed as Homo sapiens) [compound 151]” stands “++++ (>75% = ++++)”.
As for “152 (IMEDFTTFL; listed as Homo sapiens) [compound 152]”, the entry is “++++ (>75% = ++++)”; as for “153 (RLDEVSREL; listed as Homo sapiens) [compound 153]”, “+++ (>50 = +++)”.
Turning to “154 (TLGTATFTV; listed as Homo sapiens) [compound 154]”, the Peptide exchange entry is reported as “++++ (>75% = ++++)”.
